Experimental data from patent US20100144634A1 (published 2010).

How the values were obtained:
[1] = molecular target: T1, von Willebrand factor pre-denatured with 1.5 M guanidine-HCl at 37 C for two hours (UniProt P04275 764-2813); test: SPR (BIAcore), guanidine-HCl denatured VWF injected over immobilised FL-A13, equilibrium fit
T1 construct: mature; Same polypeptide as m1; also called VWF**; denatured VWF

[2] = molecular target: T2, von Willebrand factor (VWF), purified plasma-derived, multimeric, native (UniProt P04275 764-2813); test: SPR (BIAcore), VWF injected under flow over immobilised FL-A13, equilibrium fit, in the presence of 10 mM EDTA
T2 construct: mature; human is implied; also called pvWF; plasma VWF
Method: (§1) Approximately 2,000 to 8,000 response units (RU) (2˜10 ng/mm²) of purified recombinant proteins were covalently attached onto the activated CM5 chip surface. The control surface was activated similarly, but blocked by same amount of BSA (Sigma, St. Louis, Mo.). The reactive groups on the dextran surface were blocked by injection of 35 μl of 1 M ethanolamine (pH 8.5) at flow rate of 5 μl per min for 7 min. Then, purified plasma VWF at various concentrations (0-250 μg/ml or 0-1,000 nM as in FIG. 3; 0-125 μg/ml or 0-500 nM as in FIG. 4) in 10 mM HEPES, 150 mM NaCl, pH 7.5 containing 0.005% Tween 20 and 2 mg/ml BSA (HBS-T) were injected and passed over the surface at injection rate 10 to 100 μl/min or 20 μl/min for 3-5 min. The HBS-T replaced the protein solution and continued to flow for approximately 4 min; further washing with HBS-T for 20-30 min regenerated the surfaces prior to the next injection. The dissociation constants, KD (S) at the equilibrium were determined by fitting the data from the binding isotherm using a non-linear regression curve on the PRISM4 software (GraphPad Software, Inc., San Diego, Calif.).
Fitting the data directly using BIAcore evaluation software, although it is relatively easy, may overestimate the binding affinity between VWF and ADAMTS13 due to the heterogeneity of VWF molecules. […]

[3] = molecular target: B-domainless derivative of human factor VIII, FVIII-SQ, P00451
[4] = molecular target: recombinant human full-length coagulation factor VIII, P00451
[5] = molecular target: T3, human factor VIII derivative lacking the entire B domain and acidic region a3 (741-1689), FVIII-2RKR, P00451
T3 chain 1: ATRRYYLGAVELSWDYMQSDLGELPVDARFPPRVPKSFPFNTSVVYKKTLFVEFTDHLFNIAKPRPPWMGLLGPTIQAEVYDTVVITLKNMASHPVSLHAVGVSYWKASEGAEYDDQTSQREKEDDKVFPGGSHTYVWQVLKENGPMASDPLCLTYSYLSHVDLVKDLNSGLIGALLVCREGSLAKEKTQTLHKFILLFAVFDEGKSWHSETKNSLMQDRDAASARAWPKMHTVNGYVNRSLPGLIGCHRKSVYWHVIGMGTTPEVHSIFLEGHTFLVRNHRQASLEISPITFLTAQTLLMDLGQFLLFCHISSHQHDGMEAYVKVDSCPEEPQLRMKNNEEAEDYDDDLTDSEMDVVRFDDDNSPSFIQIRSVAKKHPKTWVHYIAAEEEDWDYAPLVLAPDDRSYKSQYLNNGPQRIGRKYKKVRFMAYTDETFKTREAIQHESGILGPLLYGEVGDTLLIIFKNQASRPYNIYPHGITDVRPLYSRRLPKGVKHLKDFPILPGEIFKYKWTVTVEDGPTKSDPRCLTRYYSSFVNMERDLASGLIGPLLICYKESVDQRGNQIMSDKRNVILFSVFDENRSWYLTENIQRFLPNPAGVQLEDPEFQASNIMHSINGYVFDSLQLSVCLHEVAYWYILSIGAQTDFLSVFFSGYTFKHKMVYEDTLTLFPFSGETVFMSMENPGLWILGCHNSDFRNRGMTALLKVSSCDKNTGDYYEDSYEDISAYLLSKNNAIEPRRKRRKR
T3 chain 2: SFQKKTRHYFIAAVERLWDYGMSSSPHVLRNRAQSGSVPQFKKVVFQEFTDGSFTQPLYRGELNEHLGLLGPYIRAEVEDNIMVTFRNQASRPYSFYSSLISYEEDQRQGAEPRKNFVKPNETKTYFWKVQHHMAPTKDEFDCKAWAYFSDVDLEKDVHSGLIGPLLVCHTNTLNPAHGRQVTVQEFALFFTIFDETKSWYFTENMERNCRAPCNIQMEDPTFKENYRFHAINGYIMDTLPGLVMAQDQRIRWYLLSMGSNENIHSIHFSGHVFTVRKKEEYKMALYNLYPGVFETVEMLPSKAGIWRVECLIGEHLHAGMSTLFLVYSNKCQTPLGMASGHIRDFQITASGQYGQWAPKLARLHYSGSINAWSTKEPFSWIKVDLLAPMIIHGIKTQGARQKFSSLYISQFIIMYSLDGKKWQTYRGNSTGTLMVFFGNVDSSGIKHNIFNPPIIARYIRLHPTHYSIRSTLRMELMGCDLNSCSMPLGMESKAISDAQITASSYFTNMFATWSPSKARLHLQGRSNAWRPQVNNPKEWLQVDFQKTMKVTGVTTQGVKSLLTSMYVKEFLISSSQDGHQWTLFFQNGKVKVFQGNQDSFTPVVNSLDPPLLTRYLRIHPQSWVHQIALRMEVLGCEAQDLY

[6] = molecular target: T2, von Willebrand factor (VWF), purified …; test: SPR (BIAcore), VWF injected under flow over FL-A13 immobilised on CM5, equilibrium fit, no EDTA
Method: as §1, with “Briefly, the surface of a carboxymethylated dextran (CM5) chip was activated by injection of 35 μl mixture (1:1, vol:vol) of 0.4 M 1-ethyl-3-(3-dimethylaminopropyl) carbodiimide and 0.1 M N-hydroxysuccinimide according to manufacturer's instruction (BIAcore, Uppsala, Sweden). Approximately” for “Approximately”, “The HBS-T replaced the protein solution and continued to flow for approximately 4 min; further washing with HBS-T for 20-30 min regenerated the surfaces prior to the next injection.” left out, “Calif.). […]” for “Calif.).”

B1: full-length ADAMTS13, recombinant, C-terminal V5-His (enzyme, UniProt Q76LX8 75-1427, looked up, not shown: small tags and cut ends)
chain: AAGGILHLELLVAVGPDVFQAHQEDTERYVLTNLNIGAELLRDPSLGAQFRVHLVKMVILTEPEGAPNITANLTSSLLSVCGWSQTINPEDDTDPGHADLVLYITRFDLELPDGNRQVRGVTQLGGACSPTWSCLITEDTGFDLGVTIAHEIGHSFGLEHDGAPGSGCGPSGHVMASDGAAPRAGLAWSPCSRRQLLSLLSAGRARCVWDPPRPQPGSAGHPPDAQPGLYYSANEQCRVAFGPKAVACTFAREHLDMCQALSCHTDPLDQSSCSRLLVPLLDGTECGVEKWCSKGRCRSLVELTPIAAVHGRWSSWGPRSPCSRSCGGGVVTRRRQCNNPRPAFGGRACVGADLQAEMCNTQACEKTQLEFMSQQCARTDGQPLRSSPGGASFYHWGAAVPHSQGDALCRHMCRAIGESFIMKRGDSFLDGTRCMPSGPREDGTLSLCVSGSCRTFGCDGRMDSQQVWDRCQVCGGDNSTCSPRKGSFTAGRAREYVTFLTVTPNLTSVYIANHRPLFTHLAVRIGGRYVVAGKMSISPNTTYPSLLEDGRVEYRVALTEDRLPRLEEIRIWGPLQEDADIQVYRRYGEEYGNLTRPDITFTYFQPKPRQAWVWAAVRGPCSVSCGAGLRWVNYSCLDQARKELVETVQCQGSQQPPAWPEACVLEPCPPYWAVGDFGPCSASCGGGLRERPVRCVEAQGSLLKTLPPARCRAGAQQPAVALETCNPQPCPARWEVSEPSSCTSAGGAGLALENETCVPGADGLEAPVTEGPGSVDEKLPAPEPCVGMSCPPGWGHLDATSAGEKAPSPWGSIRTGAQAAHVWTPAAGSCSVSCGRGLMELRFLCMDSALRVPVQEELCGLASKPGSRREVCQAVPCPARWQYKLAACSVSCGRGVVRRILYCARAHGEDDGEEILLDTQCQGLPRPEPQEACSLEPCPPRWKVMSLGPCSASCGLGTARRSVACVQLDQGQDVEVDEAACAALVRPEASVPCLIADCTYRWHVGTWMECSVSCGDGIQRRRDTCLGPQAQAPVPADFCQHLPKPVTVRGCWAGPCVGQGTPSLVPHEEAAAPGRTTATPAGASLEWSQARGLLFSPAPQPRRLLPGPQENSVQSSACGRQHLEPTGTIDMRGPGQADCAVAIGRPLGEVVTLRVLESSLNCSAGDMLLLWGRLTWRKMCRKLLDMTFSSKTNTLVVRQRCGRPGGGVLLRYGSQLAPETFYRECDMQLFGPWGEIVSPSLSPATSNAGGCRLFINVAPHARIAIHALATNMGAGTEGANASYILIRDTHSLRTTAFHGQQVLYWESESSQAEMEFSEGFLKAQASLRGQYWTLQSWVPEMQDPQSWKGKEGT
notes: mature; also called FL-A13; FL-AD13
[1]
  Kd: 83 nM
[2]
  Kd: 77 nM
[3]
  increase of the initial rate of cleavage of FRETS-vWF73 and GST-vWF73 by ADAMTS13: by a factor of 2 or 3
[4]
  increase of the initial rate of cleavage of FRETS-vWF73 and GST-vWF73 by ADAMTS13: by a factor of 2 or 3
[5]
  increase of the initial rate of cleavage of FRETS-vWF73 and GST-vWF73 by ADAMTS13: by a factor of 2 or 3
[6]
  Kd: 50 nM
